Measurements taken from publication PMC4005645, “Molecular basis for the wide range of affinity found in Csr/Rsm protein–RNA recognition”.

How the values were obtained:
RsmE [1] = target: T1, RsmE (Pseudomonas fluorescens CHA0, UniProt P0DPC3 1-64); assay: ITC; intermediate affinity; value in figure; ITC: 300 mM NaCl, 50 mM potassium phosphate pH 8.0, 298 K; NMR: 30 mM NaCl, 50 mM potassium phosphate pH 7.2, 313 K; details: protein: recombinant; tags: C-terminal His tag; chain copies: 2
T1 sequence: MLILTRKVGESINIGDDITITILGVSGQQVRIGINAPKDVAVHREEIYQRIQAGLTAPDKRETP

RsmE [2] = target: T1, RsmE; assay: NMR structure; slow exchange; ITC: 300 mM NaCl, 50 mM potassium phosphate pH 8.0, 298 K; NMR: 30 mM NaCl, 50 mM potassium phosphate pH 7.2, 313 K; details: protein: recombinant; tags: C-terminal His tag; chain copies: 2; hairpin
RsmE [3] = target: T1, RsmE; assay: ITC; two-site fit, high affinity, similar to SL2; values in figure; ITC: 300 mM NaCl, 50 mM potassium phosphate pH 8.0, 298 K; NMR: 30 mM NaCl, 50 mM potassium phosphate pH 7.2, 313 K; details: protein: recombinant; tags: C-terminal His tag; chain copies: 2; hairpin
RsmE [4] = target: T1, RsmE; assay: ITC; second RNA on dimer, two-site fit; ITC: 300 mM NaCl, 50 mM potassium phosphate pH 8.0, 298 K; NMR: 30 mM NaCl, 50 mM potassium phosphate pH 7.2, 313 K; details: protein: recombinant; tags: C-terminal His tag; chain copies: 2; hairpin
RsmE [5] = target: T1, RsmE; assay: ITC; first RNA on dimer, two-site fit; ITC: 300 mM NaCl, 50 mM potassium phosphate pH 8.0, 298 K; NMR: 30 mM NaCl, 50 mM potassium phosphate pH 7.2, 313 K; details: protein: recombinant; tags: C-terminal His tag; chain copies: 2; hairpin

B1: hcnA-GGA#3 (structured_RNA)
RNA: GAGCAUGGACGGCGAGACGCCGGGUA
B1: binds (RsmE [1]).

B2: RsmZ SL1 (structured_RNA)
RNA: GGGUGUCGACGGAUAGACACCC
B2: binds (RsmE [2]).

B3: RsmZ SL3 (structured_RNA)
RNA: GGGAUCGCAGGAAGCGAUCCC
B3: binds (RsmE [2]).

B4: 20nt-RBS (hcnA GGA#5) (structured_RNA)
RNA: GGGCUUCACGGAUGAAGCCC
B4: binds (RsmE [3]).

B5: RsmZ SL2 (structured_RNA)
RNA: GGGCCAUCAAGGACGAUGGUCC
B5 was tested, and the Kd (RsmE [4]) was 185 ± 3 nM and the Kd (RsmE [5]) was 16 ± 3 nM.

B6: RsmZ SL4 (structured_RNA)
RNA: GGGUCAUCAGGACGAUGACCC
B6: binds (RsmE [2]).
